In US20070286858A1 (Pfizer, published 2007):
Where a chain is given by its changes, count along the chain named.

B1: XT-M4-V14 (antibody, V domains shown)
VH: EVQLVESGGGLVQPGGSLRLSCAASGFTFNNYWMTWVRQAPGKGLEWVASIDNSGDNTYYPDSVKDRFTISRDNAKNSLYLQMNSLRAEDTAVYYCARGGDITTGFDYWGQGTLVTVSS
VL: DIQMTQSPSSLSASVGDRVTITCRASQDVGIYVNWFQQKPGKAPKRLIYRATNLADGVPSRFSGSRSGTDFTLTISSLQPEDFATYYCLEFDEHPLTFGGGTKVEIK
B2: XT-M4-V11 (antibody, V domains shown)
VH: B1 VH
VL: B1 VL with K45R
B3: XT-M4 VL-VH ScFv construct (scFv)
scFv: DIQMTQSPSSMSVSLGDTITITCRASQDVGIYVNWFQQKPGKSPRRMIYRATNLADGVPSRFSGSRSGSIYSLTISSLESEDVADYHCLEFDEHPLTFGSGTKVEIKDGGGSGGGGSGGGGSSEVQLVESGGGLVQPGRSLKLSCVVSGFTFNNYWMTWIRQTPGKGLEWVASINNSGDNTYYPDSVKDRFTISRDNAKSTLYLQMNSLRSEDTATYYCTRGGDITTGFDYWGQGVMVTVSS
notes: Tags (Flag in vitro, His in E. coli) inferred from detection
B4: XT-H2 VL-VH ScFv construct (scFv)
scFv: DVVLTQTPLSLPVNIGDQASISCKSTKSLLNSDGFTYLDWYLQKPGQSPQLLIYLVSDRFSGVPDRFSGSGSGTDFTLTISRVEAEDLGVYYCFQSNSLPLTFGSGTKLEIKDGGGSGGGGSGGGGSSQVQLQQSGAELAKPGASVKMSCKASGYTFTTYWMHWVKQRPGQGLYWIGYINPSTGYTEYNQKFKDKATLTADKSSSTAYMQLSSLTSEDSAVYYCARWAGYTIDYWGQGTSVTVSS
notes: Tags (Flag when translated in vitro, His when made in E. coli) are inferred from the detection antibodies
B5: XT-H5 (antibody, mouse IgG1, V domains shown)
VH: EVLLQQSGPELVKPGASVKISCKASGYTFTDYNMDWVKQSHGKSLEWIGDINPDNGGTIYKQKFKGKATLTVDKSSSTAYMELRSLTSEDTAVYYCTTHDHYYYALDYWGQGTSVTVSS
VL: not shown
notes: also called 1hRAGEP3/55

What was measured:
[1] = target: T1, soluble human streptavidin-tagged RAGE (human, UniProt Q15109 23-344); assay: BIACORE capture, hRAGE-SA over captured antibody, steady state affinity, FC2
T1 construct: also called hRAGE-SA; human RAGE-strep
Experimental: (§1) The assays were performed by coating anti-human Fc antibodies onto a CM5 BIA chip with 5000 RU (pH 5.0, 7 min.) in flow cells 1-4. Each antibody was captured by flowing at 2.0 μg/ml over the anti-Fc antibodies in flow cells 2-4 (flow cell 1 was used as a reference).

[2] = target: T2, murine RAGE-strep tag fusion protein (mouse, UniProt Q62151 23-343); assay: BIACORE capture, SA-Mu RAGE over captured antibody, 1:1 Langmuir global fit, FC2
T2 construct: also called mRAGE-strep; mRAGE-SA
T2 chain: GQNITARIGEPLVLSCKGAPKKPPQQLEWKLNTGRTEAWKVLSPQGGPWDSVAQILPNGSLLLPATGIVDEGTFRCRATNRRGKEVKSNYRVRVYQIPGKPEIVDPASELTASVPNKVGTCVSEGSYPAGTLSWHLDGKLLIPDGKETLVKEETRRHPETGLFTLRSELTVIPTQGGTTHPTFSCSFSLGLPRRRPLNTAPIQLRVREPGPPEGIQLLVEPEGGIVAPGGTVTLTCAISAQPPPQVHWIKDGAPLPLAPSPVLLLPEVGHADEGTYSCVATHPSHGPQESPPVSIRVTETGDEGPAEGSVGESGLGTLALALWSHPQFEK
Experimental: as §1

[3] = target: T1, soluble human streptavidin-tagged RAGE; assay: BIACORE capture, hRAGE-SA over captured antibody, 1:1 Langmuir global fit, FC2
Experimental: as §1

[4] = target: T1, soluble human streptavidin-tagged RAGE; assay: BIACORE capture, hRAGE-SA over captured antibody, 1:1 Langmuir global fit, FC4
Experimental: as §1

[5] = target: T1, soluble human streptavidin-tagged RAGE; assay: BIACORE capture, hRAGE-SA over captured antibody, steady state affinity, FC4
Experimental: as §1

[6] = target: T1, soluble human streptavidin-tagged RAGE; assay: BIACORE capture, hRAGE-SA over captured antibody, steady state affinity, row Average
Experimental: as §1

[7] = target: T1, soluble human streptavidin-tagged RAGE; assay: BIACORE capture, hRAGE-SA over captured antibody, 1:1 Langmuir global fit, FC3
Experimental: as §1

[8] = target: T2, murine RAGE-strep tag fusion protein; assay: BIACORE capture, SA-Mu RAGE over captured antibody, 1:1 Langmuir global fit, FC3
Experimental: as §1

[9] = target: T1, soluble human streptavidin-tagged RAGE; assay: BIACORE capture, hRAGE-SA over captured antibody, steady state affinity, FC3
Experimental: as §1

[10] = target: T2, murine RAGE-strep tag fusion protein; assay: BIACORE capture, SA-Mu RAGE over captured antibody, 1:1 Langmuir global fit, row Average
Experimental: as §1

[11] = target: T1, soluble human streptavidin-tagged RAGE; assay: BIACORE capture, hRAGE-SA over captured antibody, 1:1 Langmuir global fit, row Average
Experimental: as §1

[12] = target: T2, murine RAGE-strep tag fusion protein; assay: BIACORE capture, SA-Mu RAGE over captured antibody, 1:1 Langmuir global fit, FC4
Experimental: as §1

[13] = target: T3, human RAGE-Fc fusion protein (human, UniProt Q15109 23-344); assay: ELISA of in vitro translated ScFv on coated human RAGE-Fc, anti-Flag detection
T3 construct: also called hRAGE-Fc; huRAGE-Fc; not shown: Fc domain of human IgG
Experimental: ELISA plates coated with human RAGE-Fc (5 ug/ml) or BSA (200 ug/ml) in bicarbonate buffer overnight at 4° C., washed with PBS+tween 0.05% and blocked for 1 hour at room temperature with 2% milk powder PBS. Plates were incubated with in vitro translated ScFv for 2 hours at room temp. Plates were blocked and detection was with anti-Flag antibody (1/1000 dilution) followed by rabbit anti-mouse HRP (1/1000 dilution). […] Values for Kd of the ScFv in both formats as determined by BIACORE™ are used to determine the optimum antigen concentrations for selection experiments.

BSA = target: T4, BSA (Bos taurus, UniProt P02769); assay: ELISA of E. coli periplasmic ScFv cross-linked with anti-His antibody, on coated BSA
T4 construct: control antigen in the ScFv ELISA; also called bovine serum albumin
Experimental: ActRIIb represents a non-binding protein expressed from the same vector as a negative control. ELISA plates were coated with human RAGE-Fc (5 ug/ml) or BSA (200 ug/ml) in bicarbonate buffer overnight at 4 °C, washed with PBS+tween 0.05% and blocked for 1 hour at room temperature with 2% milk powder PBS. Periplasmic preparations of 20 ml E. coli cultures were performed using standard procedures. The final volume of periplasmic preparations of unpurified ScFv antibodies was 1 ml of which 50 ul was pre-incubated with anti-His antibody at 1/1000 dilution for 1 hour at room temperature in a total volume of 100 ul with 2% milk powder PBS. The cross linked periplasmic preparations were added to the ELISA plate and incubated for a further 2 hours at room temperature. The plates were washed 2 times with PBS+0.05% tween and 2 times with PBS and incubated with rabbit anti-mouse HRP at 1/1000 dilution in 2% milk powder PBS. The plates were washed as before and binding was detected using standard TMB reagents. […] Starting Kd values of the ScFv in both formats as determined by BIACORE™ are used to determine the optimum antigen concentrations for affinity selections.

[14] = target: T1, soluble human streptavidin-tagged RAGE; assay: BIACORE capture assay, antibody on CM5 chip, hRAGE-SA 0-100 nM in solution
Experimental: The assays were performed by coating antibodies onto a CM5 BIA chip with 5000-7000 RU.

baboon RAGE = target: T5, baboon RAGE (baboon (Papio cyanocephalus), UniProt Q15109 23-404 (human entry)); assay: IHC, septic baboon lung, 1 µg/ml
T5 construct: On transfected 293 cells or endogenous in baboon lung sections; also called 293-baboon RAGE; RAGE in baboon lung
T5 chain: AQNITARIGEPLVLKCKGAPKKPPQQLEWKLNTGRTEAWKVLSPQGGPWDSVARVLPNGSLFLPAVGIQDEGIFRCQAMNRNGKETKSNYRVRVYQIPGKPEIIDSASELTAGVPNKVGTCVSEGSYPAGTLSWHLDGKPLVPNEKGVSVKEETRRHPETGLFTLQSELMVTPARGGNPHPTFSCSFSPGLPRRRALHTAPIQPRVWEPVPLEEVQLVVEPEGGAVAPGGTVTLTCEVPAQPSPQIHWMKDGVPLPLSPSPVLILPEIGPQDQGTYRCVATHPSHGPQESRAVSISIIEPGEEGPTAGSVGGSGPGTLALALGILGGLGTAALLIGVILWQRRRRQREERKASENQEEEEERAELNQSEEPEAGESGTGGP
Experimental: Immunohistochemistry for RAGE lung tissues isolated from baboon, cynomolgus monkey, rabbit or Chinese Hamster Ovary cells over-expressing human RAGE or control CHO cells were performed using standard techniques. RAGE antibodies and rat IgG2b isotype control or mouse isotype control were used at […]. […] Following detection with HRP and Alexa Fluor 594, Alexa Fluor 488 or anti-biotin conjugated with FITC, sections were also stained with 4′-6-Diamidino-2-phenylindole (DAPI).
CHO cells stable transfected with an expression vector that expresses DNA encoding hRAGE is used as a positive control.

T4 sequence (P02769 25-607 limits assumed): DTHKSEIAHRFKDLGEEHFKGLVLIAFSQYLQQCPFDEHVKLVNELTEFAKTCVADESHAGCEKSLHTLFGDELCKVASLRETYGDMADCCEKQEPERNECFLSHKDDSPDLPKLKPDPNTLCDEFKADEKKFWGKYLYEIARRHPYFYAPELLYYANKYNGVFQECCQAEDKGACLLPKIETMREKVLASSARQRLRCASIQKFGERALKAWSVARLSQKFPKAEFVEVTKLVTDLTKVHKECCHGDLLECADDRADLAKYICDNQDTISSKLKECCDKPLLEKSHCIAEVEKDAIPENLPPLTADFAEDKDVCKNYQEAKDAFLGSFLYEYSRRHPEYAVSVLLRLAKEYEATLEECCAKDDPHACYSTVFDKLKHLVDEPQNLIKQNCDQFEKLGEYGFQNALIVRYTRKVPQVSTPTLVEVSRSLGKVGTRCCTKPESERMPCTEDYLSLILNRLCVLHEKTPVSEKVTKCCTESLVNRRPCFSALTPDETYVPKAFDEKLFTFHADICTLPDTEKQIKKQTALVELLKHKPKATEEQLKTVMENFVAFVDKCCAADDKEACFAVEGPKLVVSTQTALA

Binder	Kd [1] [µM]	Kd [2] [µM]	koff [2] [s⁻¹]	kon [2] [M⁻¹ s⁻¹]	Kd [3] [µM]	koff [3] [s⁻¹]	kon [3] [M⁻¹ s⁻¹]	Kd [4] [µM]	koff [4] [s⁻¹]	kon [4] [M⁻¹ s⁻¹]	Kd [5] [µM]	Kd [6] [µM]	Kd [7] [µM]	koff [7] [s⁻¹]	kon [7] [M⁻¹ s⁻¹]	Kd [8] [µM]	koff [8] [s⁻¹]	kon [8] [M⁻¹ s⁻¹]	Kd [9] [µM]	Kd [10] [µM]	other results
B1	0.016	0.002	0.0043	2.2e+06	0.0138	0.0366	2.66e+06	0.0132	0.0661	5.02e+06	0.016	0.016	0.0117	0.0464	3.96e+06	0.0019	0.004	2.1e+06	0.015	0.002	koff [10]: 0.0042 s⁻¹; kon [10]: 2.1e+06 M⁻¹ s⁻¹; Kd [11]: 0.0129 µM; koff [11]: 0.0497 s⁻¹; kon [11]: 3.88e+06 M⁻¹ s⁻¹; Kd [12]: 0.002 µM; koff [12]: 0.0041 s⁻¹; kon [12]: 2.1e+06 M⁻¹ s⁻¹
B2	0.016	0.002	0.0043	2.2e+06	0.013	0.033	2.5e+06	0.013	0.041	3.2e+06	0.017	0.016	0.012	0.039	3.4e+06	0.002	0.0042	2.1e+06	0.015	0.002	koff [10]: 0.0042 s⁻¹; kon [10]: 2.1e+06 M⁻¹ s⁻¹; Kd [11]: 0.0125 µM; koff [11]: 0.0374 s⁻¹; kon [11]: 3.01e+06 M⁻¹ s⁻¹; Kd [12]: 0.002 µM; koff [12]: 0.0041 s⁻¹; kon [12]: 2e+06 M⁻¹ s⁻¹
B3																					binding result [13]: binds; binding result (BSA): no binding
B4																					binding result [13]: binds; binding result (BSA): no binding
B5																					Ka [14]: 3.69e+08 M⁻¹; Kd [14]: 0.00271 µM; koff [14]: 0.00451 s⁻¹; kon [14]: 1.66e+06 M⁻¹ s⁻¹; binding result (baboon RAGE): binds
